Test results reported in the supplement of paper PMC9112550, “Optimization of the antimicrobial peptide Bac7 by deep mutational scanning” (BMC Biology, 2022).

Tested on: Escherichia coli TOP10
Test: shrunken log2 fold change of peptide-encoding DNA abundance (4.5 h post-induction vs induction); higher = less antimicrobial activity (less host growth inhibition)
Settings: time post-induction: 4.5 h; library: site-saturation at positions 5, 18, 19, 20
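Also: peptides expressed intracellularly from a pBAD plasmid library in pooled LB shake-flask culture, induced with 0.3% L-arabinose, DNA abundance read by NGS, three biological replicates, DESeq2 with apeglm shrinkage.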

| Sequence | shrunken log2 fold change |
| --- | --- |
| RRIRYRPPRLPRPRPRPGYPPRP | -0.299 |
| RRIRTRPPRLPRPRPRPNMNPRP | -0.864 |
| RRIRNRPPRLPRPRPRPLTGPRP | 0.0323 |
| RRIRMRPPRLPRPRPRPWRLPRP | -0.0743 |
| RRIRTRPPRLPRPRPRPSKDPRP | -0.61 |
| RRIRLRPPRLPRPRPRPGMSPRP | 0.0159 |
| RRIRYRPPRLPRPRPRPCRWPRP | -0.267 |
| RRIRFRPPRLPRPRPRPLIVPRP | -0.473 |
| RRIRERPPRLPRPRPRPSKDPRP | -0.664 |
| RRIRIRPPRLPRPRPRPEEWPRP | -0.128 |
| RRIRSRPPRLPRPRPRPRIPPRP | -0.179 |
| RRIRYRPPRLPRPRPRPRDHPRP | -0.308 |
| RRIRNRPPRLPRPRPRPLWHPRP | -0.185 |
| RRIRSRPPRLPRPRPRPIENPRP | -0.00961 |
| RRIRLRPPRLPRPRPRPYINPRP | -0.584 |
| RRIRQRPPRLPRPRPRPAQSPRP | 0.29 |
| RRIRRRPPRLPRPRPRPNGNPRP | 0.0494 |
| RRIRARPPRLPRPRPRPLRYPRP | -0.00438 |
| RRIRQRPPRLPRPRPRPVVPPRP | -0.0392 |
| RRIRERPPRLPRPRPRPAKAPRP | 0.0877 |
| RRIRWRPPRLPRPRPRPETSPRP | 0.7 |
